# Results published in US20210054076A1 (Chugai, published 2021).
# Numbering of substitutions follows the chain as printed.
# T1: human CLDN6 (human, UniProt P56747 1-220)
# T1 sequence: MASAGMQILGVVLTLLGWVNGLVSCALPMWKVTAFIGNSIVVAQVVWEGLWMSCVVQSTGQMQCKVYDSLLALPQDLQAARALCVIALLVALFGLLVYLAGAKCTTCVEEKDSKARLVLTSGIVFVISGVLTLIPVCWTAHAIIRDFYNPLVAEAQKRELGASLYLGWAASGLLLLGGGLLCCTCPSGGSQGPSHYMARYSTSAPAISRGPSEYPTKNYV
# T2: hCLDN6(Q156L) (human, UniProt P56747 1-220)
# T2 construct: Stably expressed on Ba/F3 cells; also called human CLDN6 mutant; BaF3_hCLDN6(Q156L)
# T2 chain: T1 sequence with Q156L
# T3: mouse CLDN4 (mouse, UniProt O35054 1-210)
# T3 construct: whole, on cells; also called mCLDN4; BaF3_mCLDN4
# T3 sequence (looked up): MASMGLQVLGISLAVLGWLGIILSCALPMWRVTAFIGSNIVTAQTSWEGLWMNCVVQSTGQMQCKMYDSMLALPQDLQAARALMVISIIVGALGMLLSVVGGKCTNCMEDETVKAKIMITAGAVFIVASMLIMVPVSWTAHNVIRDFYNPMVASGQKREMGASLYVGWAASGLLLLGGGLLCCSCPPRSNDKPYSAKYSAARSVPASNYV
# T4: human CLDN9 (human, UniProt O95484 1-217)
# T4 construct: whole, on cells; also called hCLDN9; BaF3_hCLDN9
# T4 sequence (looked up): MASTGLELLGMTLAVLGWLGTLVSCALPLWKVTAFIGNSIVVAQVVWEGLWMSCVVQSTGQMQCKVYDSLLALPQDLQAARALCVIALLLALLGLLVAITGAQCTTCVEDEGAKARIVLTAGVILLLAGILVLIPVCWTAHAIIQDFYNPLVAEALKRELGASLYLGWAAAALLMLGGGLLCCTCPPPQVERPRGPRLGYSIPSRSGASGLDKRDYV
# B1: CH04/CD3 (bispecific antibody, human IgG1, kappa, N297A)
# heavy 1: EVQLQQSGPELVKPGASMKISCKASGYSFTGYTMNWVKQSHGKNLEWIGLINPYNGGTIYNQKFKGKATLTVDKSSSTAYMELLSLTSEDSAVYYCARDYGFVLDYWGQGTTLTVSSASTKGPSVFPLAPSSKSTSGGTAALGCLVKDYFPEPVTVSWNSGALTSGVHTFPAVLQSSGLYSLSSVVTVPSSSLGTQTYICNVNHKPSNTKVDKKVEPKSCDKTHTCPPCPAPELRGGPKVFLFPPKPKDTLMISRTPEVTCVVVDVSHEDPEVKFNWYVDGVEVHNAKTKPREEQYASTYRVVSVLTVLHQDWLNGKEYKCKVSNKALPAPIEKTISKAKGQPREPQVYTLPPSREEMTKNQVSLTCLVKGFYPSDIAVEWESNGQPENNYKTTPPYLDSDGSFFLYSKLTVDKSRWQQGNVFSCSVMHEALHNHYTQESLSLSP
# light 1: DIVLTQSPSIMSVSPGEKVTITCSASSSVSYMHWFQQKPGTSPKLCIYSTSNLASGVPARFSGRGSGTSYSLTISRVAAEDAATYYCQQRSNYPPWTFGGGTKLEIKRTVAAPSVFIFPPSDEQLKSGTASVVCLLNNFYPREAKVQWKVDNALQSGNSQESVTEQDSKDSTYSLSSTLTLSKADYEKHKVYACEVTHQGLSSPVTKSFNRGEC
# heavy 2: QVQLVESGGGVVQPGGSLRLSCAASGFTFSNAWMHWVRQAPGKGLEWVAQIKDKSQNYATYVAESVKGRFTISRADSKNSIYLQMNSLKTEDTAVYYCRYVHYAAGYGVDIWGQGTTVTVSSASTKGPSVFPLAPSSKSTSGGTAALGCLVKDYFPEPVTVSWNSGALTSGVHTFPAVLQSSGLYSLSSVVTVPSSSLGTQTYICNVNHKPSNTKVDKKVEPKSCDKTHTCPPCPAPELRGGPKVFLFPPKPKDTLMISRTPEVTCVVVDVSHEDPEVKFNWYVDGVEVHNAKTKPREEQYASTYRVVSVLTVLHQDWLNGKEYKCKVSNKALPAPIEKTISKAKGQPREPQVYTLPPSRKEMTKNQVSLTCLVKGFYPSDIAVEWESNGQPENNYKTTPPYLDSDGSFFLYSKLTVDKSRWQQGNVFSCSVMHEALHNHYTQKSLSLSP
# light 2: DIVMTQSPLSLPVTPGEPASISCRSSQPLVHSNRNTYLHWYQQKPGQAPRLLIYKVSNRFSGVPDRFSGSGSGTDFTLKISRVEAEDVGVYYCGQGTQVPYTFGQGTKLEIKRTVAAPSVFIFPPSDEQLKSGTASVVCLLNNFYPREAKVQWKVDNALQSGNSQESVTEQDSKDSTYSLSSTLTLSKADYEKHKVYACEVTHQGLSSPVTKSFNRGEC
# notes: Made by Fab arm exchange of the bivalent anti-CLDN6 antibody CH04 with the bivalent anti-CD3 antibody CD3-1; human IgG1 constant region; One anti-CLDN6 arm and one anti-CD3 arm; also called CLDN6-TRAB; CLDN6-targeted T-cell redirecting bispecific antibody
# Key:
# human CLDN6 = biological target: T1, human CLDN6; assay: cell-based or functional assay
# hCLDN6(Q156L) = biological target: T2, hCLDN6(Q156L); assay: FACS on Ba/F3 transfectant, antibody 20 micro g/ml, FITC anti-human IgG
# mouse CLDN4 = biological target: T3, mouse CLDN4; assay: as above
# human CLDN9 = biological target: T4, human CLDN9; assay: as above
binder,measurement,setting,value
B1,"EC50 (read off the curve), Jurkat/NFAT-RE luciferase reporter, target cells PA-1",human CLDN6,~0.04 nM
same,Geo-mean value of FACS,hCLDN6(Q156L),80
same,Geo-mean value of FACS,mouse CLDN4,23
same,Geo-mean value of FACS,human CLDN9,186
